Data published in patent US8329865B2, “Antimicrobially active peptides” (priority 2001, dated 2012).

Key:
[1] = system: human erythrocytes; assay: Hemolytic assay; type: cell-based; details: 100 μg/ml
Experimental: Hemolytic assay. The hemolytic activity of DCD peptides was determined on fresh human erythrocytes, which were separated from human EDTA blood using a Ficoll gradient. Isolated erythrocytes were washed three times in 5 ml of PBS (50 mM sodium phosphate buffer, 150 mM NaCl [pH 7.0]) and centrifuged at 1,000×g for 6 min at room temperature. The pellets were resuspended in PBS and further diluted to a concentration of 10^9 human erythrocytes/ml. Hemolytic activity was determined as follows. To the human erythrocyte solution (50 μl), PBS (1 ml) was added, followed by different concentrations of the peptides. The suspension was incubated for 30 min at 37° C. and then centrifuged at 1,000×g for 6 min at 4° C. The supernatant was monitored at 415 nm by using a spectrophotometer (Bio-Rad, Munich, Germany). The hemolytic activity of each peptide was expressed as the percentage of the total hemoglobin release compared to the release after incubation with Millipore water.

[2] = CF release assay with unilamellar liposomes; details: even after the addition of 10 μM peptide; relative to Triton X-100
Experimental: FIG. 9. Effect of DCD-derived peptides on membrane permeability. (A) Outer membrane permeability measured by peptide-mediated NPN uptake in E. coli ML-35p. E. coli cells were incubated with 10 μM NPN in the presence of various concentrations of DCD peptides in 5 mM sodium HEPES buffer (pH 7.4). Enhanced uptake due to membrane permeability was measured by an increase in fluorescence intensity (Ex350 and Em460) caused by partition of NPN into the hydrophobic interior of the outer membrane. At time point 0 min, intact E. coli ML-35p cells were added to the peptides. The results are expressed as NPN uptake factor of fluorescence in arbitrary units. All analyses were performed in triplicates. (B) Inner membrane permeability measured as the influx of ONPG in E. coli ML-35p after the addition of DCD peptides. […] The release of ONP by cytoplasmic β-galactosidase was spectrophotometrically monitored at 420 nm. […] All samples were analyzed in triplicates. […] Release was determined 4 min after peptide addition at concentrations of 1 to 10 μM. […] Reaction progress was expressed as the percentage of CF released relative to the total fluorescence released after the addition of Triton X-100 solution at the end of each experiment.
Preparation of liposomes and CF release assay. […] The liposome concentration was determined by phosphorous analysis (Rouser, G. et al. 1970 Lipids 5:494-496). […]

[3] = CD spectroscopy, secondary structure; type: physicochemical
Experimental: CD) spectroscopy. Circular dichroism (CD) measurements were performed with a Jasco J-720 CD spectrapolarimeter (Jasco, Tokyo, Japan) to determine the secondary structure of DCD-derived peptides. The data are reported as the average of three to four scans at 50 nm/min with a 1-nm step resolution. The CD spectra of the peptides (50 μM) in 10 mM sodium phosphate buffer (pH 7.0) with different amounts of NaCl (10, 100, and 150 mM) in 0 to 60% (vol/vol) trifluoroethanol (TFE) and in the presence of artificial phospholipid vesicles such as DOPC and DOPC-DOPG (1:1 molar ratio) were recorded at room temperature in the 180- to 260-nm wavelength range. The data are reported as the mean residue ellipticity in units of degrees cm^2 dmol^−1 and plotted versus wavelength. The secondary structural predictions for peptides were carried out by Jasco secondary structure software.

[4] = system: Escherichia coli, Staphylococcus aureus, Enterococcus faecalis and Candida albicans; assay: CFU test (colony-forming units), Example 4; type: cell-based; details: sodium phosphate buffer, 37° C., 3 h, 4 h or overnight
Experimental: The antimicrobial effect of said peptides was carried out by a CFU test (test for colony-forming units) as described for the defensins by Valore et al., “Human Beta-Defensin-1: An Antimicrobial Peptide of Urogenital Tissues”, J Clin Invest 101, 1633-1642 (1998).
The test of the novel peptides was carried out with Escherichia coli, Staphylococcus aureus, Enterococcus faecalis and Candida albicans. E. coli was incubated in LB medium, E. faecalis and S. aureus in Columbia medium (Difko, BD Heidelberg) and C. albicans in casein hydrolysate medium (Merck, Darmstadt). The amounts of bacteria and yeasts were determined by photometry. The bacterial strains were incubated to an optical density of […] at 600 nm and the yeast was incubated to an optical density of 0.4-0.6 at 450 nm. The amount of the organisms was determined by plating various dilutions as follows: an OD of 1 at 600 nm is equivalent to 8.2×10^9/ml for E. coli, 1.9×10^10/ml for S. aureus and 9.0×10^9/ml for E. faecalis, and an OD of 1 at […] is equivalent to 1.4×10^8/ml for C. albicans.
The cells were washed twice with 10 mM sodium phosphate buffer (pH 7.4) and diluted to 2-3×10^7 cells/ml (E. coli, E. faecalis), 5.7×10^7 cells/ml (S. aureus) or 5×10^5 cells/ml (C. albicans) in phosphate buffer.
The cells were incubated with various amounts of the peptides in 200 μl of sodium phosphate buffer at 37° C. for 3 h, 4 h or overnight (21-24 h). The cells were diluted 1:10 to 1:100 for the bacteria and 1:500 to 1:5000 for the yeast, and 50 μl, 100 μl and 200 μl were plated on appropriate agar plates. The plates were incubated at 37° C. overnight, and the number of colonies was counted. The antimicrobial effect of the peptides has been stated as percentage of killed cells: [1−(cell survival after incubation with the peptide)/(cell survival after control incubation)]×100.

[5] = DOPC-DOPG (1:1 molar ratio) liposomes

Compound	hemolytic activity [1]	CF leakage from liposomes made of DOPC and DOPC-DOPG [2] [%]	Secondary structure, Random coil ([3]; 10 mM NaP) [%]	Secondary structure, Turn ([3]; 10 mM NaP) [%]	Secondary structure, α-Helix ([3]; 10 mM NaP) [%]	Secondary structure, β-Sheet ([3]; 10 mM NaP) [%]	Secondary structure, Random coil ([3]; 60% TFE) [%]	Secondary structure, Turn ([3]; 60% TFE) [%]	Secondary structure, α-Helix ([3]; 60% TFE) [%]	Secondary structure, β-Sheet ([3]; 60% TFE) [%]	Secondary structure, Random coil [3, 5] [%]	Secondary structure, Turn [3, 5] [%]	Secondary structure, α-Helix [3, 5] [%]	Secondary structure, β-Sheet [3, 5] [%]	Secondary structure, Random coil ([3]; dH2O) [%]	Secondary structure, Turn ([3]; dH2O) [%]	Secondary structure, α-Helix ([3]; dH2O) [%]	Secondary structure, β-Sheet ([3]; dH2O) [%]	antimicrobial effect (percentage of killed cells) [4]
CC[C@H](C)[C@H](NC(=O)[C@H](CCCCN)NC(=O)[C@H](CCC(=O)O)NC(=O)[C@H](CCCCN)NC(=O)[C@H](CO)NC(=O)[C@H](CCCCN)NC(=O)[C@H](CCCNC(=N)N)NC(=O)[C@H](Cc1ccccc1)NC(=O)[C@H](Cc1ccccc1)NC(=O)[C@H](CC(=O)O)NC(=O)CNC(=O)[C@H](CC(C)C)NC(=O)[C@@H](N)CC(C)C)C(=O)NCC(=O)N[C@@H](CCCCN)C(=O)N[C@@H](CCC(=O)O)C(=O)N[C@@H](Cc1ccccc1)C(=O)N[C@@H](CCCCN)C(=O)N[C@@H](CCCNC(=N)N)C(=O)N[C@H](C(=O)N[C@H](C(=O)N[C@@H](CCC(N)=O)C(=O)N[C@@H](CCCNC(=N)N)C(=O)N[C@H](C(=O)N[C@@H](CCCCN)C(=O)N[C@@H](CC(=O)O)C(=O)N[C@@H](Cc1ccccc1)C(=O)N[C@@H](CC(C)C)C(=O)N[C@@H](CCCNC(=N)N)C(=O)N[C@@H](CC(N)=O)C(=O)N[C@@H](CC(C)C)C(=O)N[C@H](C(=O)N1CCC[C@H]1C(=O)N[C@@H](CCCNC(=N)N)C(=O)N[C@H](C(=O)N[C@@H](CCC(=O)O)C(=O)N[C@@H](CO)C(=O)O)[C@@H](C)O)C(C)C)[C@@H](C)CC)C(C)C)[C@@H](C)CC [LL-37]	up to 2.5%																		
DPYAEAASGPNPGSKSHESAQAENCGADPE [DPI, negative control peptide, unrelated scrambled peptide]		≤ 2	54.8	19.4	0.0	25.8	42.5	6.0	9.6	42.0	51.2	19.1	0.0	29.7	50.3	15.4	0.0	34.3	no appreciable antimicrobial effect
